Reference: US20230055566A1

Target: human FGFR2b (beta)-Fc (human) (UniProt P21802)
Assay: SPR (Biacore), hFGFR2b-Fc immobilized on CM5 chip, antibody injected at 0-200 nM

FPA144 (antibody)
Kd: 0.75 nM
koff: 7.77e-05 s⁻¹
kon: 104000 M⁻¹ s⁻¹
